# Results published in US20050059089A1 (priority 2003, published 2005).
# Entries after “also recorded” stand apart in the source; their conditions may differ. Where two headings read alike, the source gives them in different places.
# Key:
# GPCR142 [1] = target: T1, GPCR142 (Homo sapiens, UniProt Q8TDU9, L329S); assay: Ca2+ mobilization assay (FLIPR), HEK293 cells co-expressing GPCR142 and Gα16; type: cell-based; parameters: The complete coding region of human GPCR142 was PCR-amplified from human genomic DNA; expressed in transfected cells; HEK293 co-transfected with Gα16 (Ca2+)
# T1 sequence (Q8TDU9 whole entry L329S): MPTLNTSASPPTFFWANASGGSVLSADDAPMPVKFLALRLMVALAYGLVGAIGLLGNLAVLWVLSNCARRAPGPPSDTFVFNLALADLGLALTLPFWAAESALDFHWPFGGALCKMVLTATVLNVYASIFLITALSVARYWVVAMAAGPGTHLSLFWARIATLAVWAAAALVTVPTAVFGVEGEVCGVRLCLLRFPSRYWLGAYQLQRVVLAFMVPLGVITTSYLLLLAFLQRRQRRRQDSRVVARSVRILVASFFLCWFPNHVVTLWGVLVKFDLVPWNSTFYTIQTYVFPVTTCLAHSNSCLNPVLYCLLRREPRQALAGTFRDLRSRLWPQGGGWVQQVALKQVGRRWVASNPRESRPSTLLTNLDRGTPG
# Description: (§1) Human embryonic kidney (HEK) 293 cells were transfected with GPCR135,.GPCR142 or co-transfected with Gqi5 (Conklin et al. (1993), Nature 363, 274-280) or Gα16 (Amatruda et al. (1991), Proc. Natl. Acad. Sci. U.S.A. 88, 5587-5591) expressing plasmids using LipofectAmine. Two days after transfection, cells were detached with PBS plus 10 mM EDTA. The detached cells were washed with DMEM-F12 medium (without phenol red, Invitrogen) and seeded in black poly-D lysine coated 96-well plates (BD Biosciences, San Jose, Calif.) at a cell density of 50,000 cell/well.
# GPCR135 [2] = target: T2, GPCR135 (Homo sapiens, UniProt Q9NSD7); assay: Inhibition of forskolin-stimulated cAMP (CRE-β-galactosidase) in SK-N-MC cells; type: cell-based; parameters: expressed in transfected cells; conditions: SK-N-MC cells stably expressing GPCR135
# T2 sequence (Q9NSD7 1-469): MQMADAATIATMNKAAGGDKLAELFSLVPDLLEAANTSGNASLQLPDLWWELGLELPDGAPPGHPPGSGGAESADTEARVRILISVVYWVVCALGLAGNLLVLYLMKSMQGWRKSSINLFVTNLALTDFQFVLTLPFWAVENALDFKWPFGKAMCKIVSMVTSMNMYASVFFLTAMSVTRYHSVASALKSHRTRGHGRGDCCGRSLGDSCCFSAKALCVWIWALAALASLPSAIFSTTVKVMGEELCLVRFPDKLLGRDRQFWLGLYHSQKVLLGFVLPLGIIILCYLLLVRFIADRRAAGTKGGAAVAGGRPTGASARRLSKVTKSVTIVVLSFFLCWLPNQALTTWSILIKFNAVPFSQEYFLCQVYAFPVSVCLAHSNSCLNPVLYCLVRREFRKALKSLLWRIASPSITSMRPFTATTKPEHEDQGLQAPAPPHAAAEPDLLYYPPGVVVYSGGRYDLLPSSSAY
# Description: SK-N-MC cells stably expressing GPCR142 were established by transfection of GPCR142 expressing plasmids into SK-N-MC cells harboring a β-galactosidase gene under control of multiple cAMP responsive elements. The stable transfectants were selected by culturing the transfected cells under G418 selection (400 mg/L). The receptor expressing cells were seeded in 96-well plates at a cell density of 30,000 cells/well. After 24 h, cells were stimulated with forskolin or different peptides. Cells were cultured for an additional 6 h and the intracellular β-gal activity, which represents the intracellular cAMP accumulation, was measured as described by Liu et al. (2000), Mol. Pharmacol., 59, 420-426.
# The same experiment was performed using GPCR135.
# GPCR135 [3] = target: T2, GPCR135; assay: GTPγS binding assay, GPCR135 expression membranes; type: biochemical; parameters: expressed in transfected cells; host or cells: CHO membranes (GTPγS); HEK293 with Gα16 or Gqi5 (Ca2+)
# Description: The GPCR142 expression vector described above was transfected into CHO cells using Lipofectamine (Invitrogen) according to the manufacturer's instructions. Two days after transfection, the cells were harvested and the cell membranes were prepared by homogenizing the cells in cold 50 mM Tris-HCl, 5 mM EDTA, pH 7.5 followed by centrifugation at 4° C. 1000 g for 10 min. The supernatant was centrifuged at 4° C. 20,000 g for 30 min and the pellet was re-suspended in GTPγS binding buffer: 50 mM Tris-HCl, pH 7.4, 10 mM MgCl2, 1 mM EDTA, pH 8.0, and 100 mM NaCl using a polytron tissue homogenizer. Protease inhibitors were added to the buffer at concentrations of 1 mM PMSF, 10 μg/ml of pepstatin A, 10 μg/ml of leupeptin. Cell membranes and different concentrations of ligands were added to 96-well plates and incubated at room temperature for 20 min. ^35S-GTPγS (NEN) was then added to each well at a final concentration of […] in a final volume of 200 μL. The reactions were allowed to proceed at room temperature for 1 h, and then the mixtures were filtered though a 96-well GFC filter plate (Packard) and washed with cold washing buffer: 50 mM Tris-HCl, pH 7.4, 10 mM MgCl2. Fifty microliters of Microscint-40 (Packard) was added to each well and the plate was counted on a top counter (TopCount NTX, Packard).
# The same assay was performed as described above, except using GPCR135 in place of GPCR142.
# mouse GPCR142 = target: T3, mouse GPCR142 (Mus musculus, UniProt Q7TQP4); assay: Ca2+ mobilization assay, mouse GPCR142 and Gα16; type: cell-based; conditions: cells expressing mouse GPCR142 and Gα16
# T3 construct: The complete coding region of the mouse GPCR142 was deposited in GenBank; expressed in transfected cells; CHO membranes (GTPγS, by the general protocol); HEK293 with Gα16 (Ca2+)
# T3 sequence (Q7TQP4 1-414): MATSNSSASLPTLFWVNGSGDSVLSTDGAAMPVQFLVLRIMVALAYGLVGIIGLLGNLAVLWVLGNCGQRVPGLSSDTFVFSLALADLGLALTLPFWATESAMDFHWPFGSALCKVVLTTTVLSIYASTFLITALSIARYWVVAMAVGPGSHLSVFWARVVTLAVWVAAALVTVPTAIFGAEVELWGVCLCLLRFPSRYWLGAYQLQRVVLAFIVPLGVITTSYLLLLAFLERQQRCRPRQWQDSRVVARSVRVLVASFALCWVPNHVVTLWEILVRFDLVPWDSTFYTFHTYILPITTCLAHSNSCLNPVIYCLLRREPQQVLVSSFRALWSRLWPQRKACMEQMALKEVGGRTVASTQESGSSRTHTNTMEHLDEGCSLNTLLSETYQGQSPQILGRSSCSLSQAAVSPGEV
# Description: as §1
# GPCR135 [4] = target: T2, GPCR135; assay: Ca2+ mobilization assay, 293 cells co-expressing GPCR135 and Gqi5; type: cell-based
# Description: as §1
# GPCR142 [5] = target: T1, GPCR142; assay: Ca2+ mobilization assay, 293 cells co-expressing GPCR142 and Gqi5; type: cell-based; parameters: The complete coding region of human GPCR142 was PCR-amplified from human genomic DNA; expressed in transfected cells; HEK293 co-transfected with Gqi5 (Ca2+)
# Description: as §1
substance,measurement,setting,value
"relaxin3: Human relaxin3 (SEQ ID NO: 6), produced recombinantly; mature peptide of A- and B-chain linked by disulfide bridges",stimulation of Ca2+ mobilization,GPCR142 [1],stimulated Ca2+ mobilization; also recorded: stimulated a strong Ca^2+ signal; also recorded: stimulates Ca^2+ signaling
same,inhibition of forskolin induced β-galactosidase expression,GPCR135 [2],dose-dependently inhibits
same,stimulation of GTPγS binding,GPCR135 [3],stimulated GTPγS binding
same,Ca2+ response,mouse GPCR142,did not stimulate detectable Ca^2+ response
same,stimulation of Ca2+ mobilization,GPCR135 [4],stimulates Ca^2+ mobilization
same,stimulation of Ca2+ signaling,GPCR142 [5],No relaxin3-stimulated Ca^2+ signaling was observed
same,stimulation of Ca2+ signaling,GPCR142 [5]; listed as Relaxin3,does not stimulate any detectable Ca^2+ signal
